B1: S2D106 Fab (Fab, V domains shown)
VH: EVQLVQSGAEVKKPGSSVKVSCKASGGPFSSSAISWVRQAPGQGLEWMGGIIPMVGTANYAQKFQGRVTITADESTSTAYMELSSLRSEDTAVYYCARDSRYCSGGSCYSVWFDPWGQGTLVTVSS
VL: not shown
B2: S2H14 IgG1 (LS) (antibody, V domains shown)
VH: not shown
VL: NFMLTQPHSVSESPGKTVTISCTRSSGSIASNYVQWYQQRPGSSPTTVIYEDNQRPSGVPDRFSGSIDSSSNSASLTISGLKTEDEADYYCQSYDSSNQVFGGGTKLTVL
B3: S2H97 Fab (Fab, V domains shown)
VH: QVRLVQSGAEVKKSGESLKISCKGSGYSFTSYWIGWVRQMPGKGLEWMGIIYPGDSDTRYSPSFQGQVTISADKSISTVYLQWSSLKASDTAMYYCARQWSHYTYDYYYWGQGTLVTISS
VL: QSVLTQPASVSGSPGQSITISCTGISSDVGGYNSVSWYQQHPGKAPKLMIYDVTNRPSGVSNRFSGSKSGNTASLTISGLQAEDEADYYCSSYTSSSTPPYVFGTGTKVSVL

Assays:
[1] = target: SARS-CoV-2 HexaPro Spike protein for cryoEM analysis (SARS-CoV-2 (Wuhan-Hu-1), UniProt P0DTC2, stabilised); assay: cryo-EM structure
[2] = target: yeast-displayed unmutated SARS-CoV-2 RBD (Wuhan-Hu-1) (SARS-CoV-2, UniProt P0DTC2); assay: flow cytometry on cells

Binder | binding result [1] | binding result [2]
B1 | binds | 
B2 |  | binds
B3 | binds | 
